From article PMC11275975, “Structural basis for transcription activation through cooperative recruitment of MntR” (Research Square, 2024)

Biological target: the molecule itself
Test: mass photometry; MntR alone, in the presence of 1 mM Mn2+; single peak; monomers to dimer

B1: manganese transport regulator (MntR) from B. subtilis, wild type (natural protein)
chain: MTTPSMEDYIEQIYMLIEEKGYARVSDIAEALAVHPSSVTKMVQKLDKDEYLIYEKYRGLVLTSKGKKIGKRLVYRHELLEQFLRIIGVDEEKIYNDVEGIEHHLSWNSIDRIGDLVQYFEEDDARKKDLKSIQKKTEHHNQ
notes: MntR, manganese transport regulator, Bacillus subtilis; dimer of 142-residue subunits; the cryo-EM maps show residues 3-142; Expressed from the pSMT3 vector as a His6-SUMO fusion; the tag was cut off with ULP-1; Assayed with 1 mM Mn2+ (two Mn2+ ions per subunit); also called WT MntR; MntR2 (dimer); source: E. coli BL21(DE3)NiCo, purified (TALON, ULP-1 cleavage, Ni-NTA)
stoichiometry N: 2
